Here are results for 30 sequences from the nanobody polyreactivity screen of Harvey et al. (2022).

The nature of the data set: yeast display, Sf9 membrane polyspecificity reagent, FACS + sequencing; frameworks hold sequencing errors. A digest of the protocol: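 Nanobodies came from a synthetic yeast display library in Saccharomyces cerevisiae BJ5465, induced with galactose for 36–48 hours and stained for 1 hour at 4 °C with 10% biotinylated, detergent-solubilized Sf9 membrane reagent. Cells were enriched on streptavidin microbeads and then FACS-sorted, with low and high (top ~1%) gates set on anti-HA fluorescence for expression and streptavidin fluorescence for reagent binding. Each polyreactivity label reflects the gate a clone came from. Genes were amplified by colony PCR, sequenced by MiSeq 2 × 250 and filtered by CDR length.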
“QVQLVESGGGLVQAGGSLRLSCAASGRTFYRNAMGWYRQAPGKERELVAAISRGDSTYYADSVKGRFTNSRDNAKNTVYLQMNILIPEDTAVYYCAKRARRIGDVNMGSWGQGTQVTVSS”: the “polyreactivity (PSR sort gate)” value is recorded as “low polyreactivity”. Consider “QVQLQESGGGLVQAGGNLRLSCAASGYISRWYGMGWYRQAPGKERELVAGMSPGGSTYYADSVKGRITISRDNAKNTVYLQMNSLKPEDTAVYYCAAQDFQDSIYFYWGQGTQVTVSS”, for which the “polyreactivity (PSR sort gate)” value is listed as “high polyreactivity”. For “QVQLVESGGGLVQAGGSLRLSCAASGFTFRQNAMGWYRQAPGNERELVAVITKSAGSTYYADSVKGRFTISRDNAKNTVYLQMNSLKPEATAVYYCNKRQRFVSSCRRSQGIGWEDDYWGQGTQVTVSS” the value was “low polyreactivity”. With “QVQLVESGGGLVQAGGSLRLSCAASGSTFFEYTMGWYRQAPGKEREFVADIRGRDGSTSYADSVKGRFTISRDNAKNTVYLQMNSLKPEDTAVYYCNADVTRWTRSPWPYTYDYWGQGTQVTVSS”, the “polyreactivity (PSR sort gate)” value was “low polyreactivity”. For “QVQLVESGGGLVQAGGSLRLSCAASGSISGRNTMGWYRQAPGKERELVAAISWSGGSTYYADSVKGRFTISRDNAKNTVYLQMNSLKPEDTAVYYCAARNWRGVGGGVGRYGYWGQGTQVTVSS”, the “polyreactivity (PSR sort gate)” value is “high polyreactivity”.

As for “QVQLVESGGGLVQAGGSLRLSCAASGRIFGVYAMGWYRPAPGKERELVAGINGGDSTYYADSVKGRFTISRDNAKNTVYLQMNSLKPEDTAVYYCAAEADESGSNYDYWGQGTQVTVSS”, the “polyreactivity (PSR sort gate)” value is “low polyreactivity”. On to “QVQLVESGGGLVQAGGSLRLSCAASGRTFVFNAMGWYRQAPGKERELVAAISARGGRTYYADSVKGRFTISRDNAKNTVYLQMNSLKPEDTAVYYCATVPYPNRKVGVDYWGQGTQVTVSS”, for which the “polyreactivity (PSR sort gate)” value was “high polyreactivity”. For “QVKLVESGGGLVQAGGSLRLSSAASGSTFEYNAMGWYRQAPGKERELVASSTNYADSVKGRFTISRDNAKNTVYLQMTSRKPEDTAVYYCAREQGVNRNHDYWGQGTQVTVSS”, the “polyreactivity (PSR sort gate)” value is listed as “low polyreactivity”. As for “QVQLVESGAGIVQAGGSLRLSCAASGIIFNLYAMGWYRQAPGKERELVASISIGGSTNYADSVKGRFTISRDNAKNTVYLQMNSLKPEDTAVYYCAAALYEATYDANGLDMDYWGQGTQVTVSS”, the “polyreactivity (PSR sort gate)” value is “high polyreactivity”.

As for “QVQLVESGGGLVQAGGSLRLSCAASGSTFDSYAMGWSRQAPGKERELVAAISYSGGSTYYADSVKGRFTISRDNAKNTVYLQMNRLKPEDTAVYYCAASSYNHKRYPSPYDYWGQGTQVTVSS”, the “polyreactivity (PSR sort gate)” value is listed as “high polyreactivity”.

As for “QVQLVESGGGLVQAGGSLRLSCAASGRIFRFNAMGWYRQAPGKERELVAAITGSGGTTFYADSVKGRFTLSRDNAKNTVYLQMNSLKPEDTAVYYCNTLGNWRPVYNQPRYEYWGQGTQVTVSS”, the “polyreactivity (PSR sort gate)” value is recorded as “high polyreactivity”.

With “QVQLVESGGGLLQAGGSLRLSCAASGITFYLYAMGWYRQAPGKVRELVAAITKSGASTYYADSVKGRFTISRDNAKNTVYLQMNSLKPEDTAVYYCAAVLQSGYGYEYWGQGTQVTVSS”, the “polyreactivity (PSR sort gate)” value is reported as “high polyreactivity”. In the case of “QVQLVDSWGGLVQAGGSLRLSCAASGRTSRYAMGWYRQAPGKERELVAAITSSGGRTYYADSVKGRFTISRDNAKNTVYLQMNSLKPEDTAVYYCAAGYLLWRTWDYAAGHNYWGQGTQVTVSS”, the “polyreactivity (PSR sort gate)” value was “high polyreactivity”.

Consider “QVQLVESGGGLVQAGGSLRLSCAASGGTLWGYGMGWYRQAPGKEREFVAAITWSGGNTNYADSVKGRFTISRDNAMNTVYLLMNSLKPEDTAVYYCNARVYYKRKYDYWGQGTQVTVSS”, for which the “polyreactivity (PSR sort gate)” value is given as “high polyreactivity”. For “QVQLVESGGGLVQAGGSLRLSCAASGLTFEGNAMGWYRQAPGKERELVAAISRRGGSTYYADSVKGRFTISRHNAKNTVYLQMNSLKPEDSAVYYCAADRQPYTDKYDYWGQGTQVTVSS” the value was “high polyreactivity”; for “QVQLVESGGGLVQAGGSLRLSCAASGRIFLVNAMGWYRQAPGKEREFVAAITDNPGSTYYADSVKGRFTISRDNAKNTVYLQMNSLKPEDTAVYYCAKQRGNKRIGYDSWGQGTQVTVSS”, “low polyreactivity”; for “QVQLVESGGGLDQAGGRLPLTCAASGLIFYDNMGWYRHAPGKERELVAAISSSGGSTSYADSVKGRFTISRDNAKNTVFLQMICLKPEDTAVYYCAADSYPAYLGFVGFDYWGQGTIVTVSS”, “low polyreactivity”. Turning to “QVQLVESGGGLVQAGGSLRLSCAASGFIFRRNAMGWYRQAPGKERELVATISSGVGTYYADSVKGRFTISRDNAKNTVYLQMNSLKPEDTAVYYCATLVHYLYTGYRAYYSYRLDYWGQGTQVTVSS”, the “polyreactivity (PSR sort gate)” value was “high polyreactivity”. Take “QVQLVESGGGLVQAGGSLRLSCAASGSIFCSYAMAWYRQAPGKERELVASITRSGGSTYYADSVKGRFTISRDNAKNTVYLQMNSLKPEDTAVYYCNARRTTRWGSSKYEYDYWGQGTQVTVSS”: the “polyreactivity (PSR sort gate)” value was “high polyreactivity”. For “QVQLVESCGGLVQAGGSLRLSCAASGRIFQTYAMGWYRQAPGKERELVASISWSGGSTYYADSVKGRFTILRDNAKNTVYLQMNSLKPEDTAVYYCAAVYYSTDYYFWYDYWGQGTQVTVSS”, the “polyreactivity (PSR sort gate)” value is “low polyreactivity”. In the case of “QVQLVESGGGLVQAGGILRLSCAASGGIIAINAMGWYRQAPGKERELVAAISWGDGITYYADSVKGRFTISRDNEKNTVYLQMNSLKPEDTAVYYCAADEDEYRGGDESWGQGTQVTVSS”, the “polyreactivity (PSR sort gate)” value is “low polyreactivity”. Take “QVQLVESGGGLVQAGGSHRLSCAASGYIFQWNAMGWYRQAPGKERELVATISRRGGSTYYADSVKGRFTISRDNAKNTVYLQMNSLKPEDTAVYYCNAVFGSYKDYGYWGQGTQVTVSS”: the “polyreactivity (PSR sort gate)” value is given as “low polyreactivity”. With “QVQLVETGGGLVQAGGSLRLSCASSGFIFVRYAMGWYRQAPGKERELVAAITKGGGRTYYADSVKGRFTISRDNAKNTVYLQMNSLKPEDTAVYYCATAGAHGRERDYWGQGTQVTVSS”, the “polyreactivity (PSR sort gate)” value is on record as “high polyreactivity”. “QVQLVESGGGLVQAGGSLRLSCAASGSTSVYYAMGWYRQAPGKERELVAAITSGGRTYYADSVKGRFTISRDNAKNTVYLQMNSLKPEDTAVYYCNKGLYYFLPTKFRLDYWGQGTQVTVSS”: the “polyreactivity (PSR sort gate)” value is recorded as “high polyreactivity”. For “QVQLVESGGGLVKAGGSLRLSCDASGLTFNANPMGWYRQEPGKESELVAAIDWIGVSTYYADSVKGRFTISRDNAKNTVYLQMNSLKPEDTAVYYCAAEYDYNFGGNDLWYYYWGQGTQVTVSS” the value was “high polyreactivity”; for “QVLLQESGGGLVQAGGSLRLCCAASGYISGDQFMGWYRQAPGKEREFVAGIGNGTNTNYADSVKGRFTTSRDNAKNTVYLQMNSLKPEDTAVYYCAADPSDGSTLAYWGQGTQVTVSS”, “high polyreactivity”. For “QVQLVESGGGLVEAGGSLRLSCAASGSTFRYYAMGWYRQAPGKERELFAAITWSGGSTNYADSVKGRFTISRDNAKNTFYLQMNSLKPEDTAVYYCNARYLYRHSRYARYDSWGQGTQVTVSS”, the “polyreactivity (PSR sort gate)” value is given as “high polyreactivity”. Turning to “QVQLVESGGGLVQAGGSLRLSCAASGSTFYRNALGWYRQAPGKERELVARIYRSGSSTSYADSVKGRFTISRDYSKNTVYLQMNSLKPVDTAVYYCATVFVRYEMYWGQGTQLTVSS”, the “polyreactivity (PSR sort gate)” value is “high polyreactivity”.

For “QVQLQESGGGLVQAGGSLRLSCAASGYISHADEMGWYRQAPGKEHELVASISNGGSTNYADSVKGRFTISRDNAKNTVYLQMNSLKSEDTAVYYCAAWTGQVDIHYYWGQGTQETVSS”, the “polyreactivity (PSR sort gate)” value is listed as “low polyreactivity”. Turning to “QVQLVESGGGLVQAGGSLRLSCAASGSIFPPNAMAWYRQAPGKEREFVAAITESGGSTRYADSVKGRFTISRDNAKNTVYLQMNSLKPEDTAVYYCAARSYRYSTHGTYRYYYWGQGTQVTVSS”, the “polyreactivity (PSR sort gate)” value is on record as “high polyreactivity”.
